In the nanobody polyreactivity screen of Harvey et al. (2022):

Experiment: yeast display, Sf9 membrane polyspecificity reagent, FACS + sequencing; frameworks hold sequencing errors
In short: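 Polyreactivity labels are assigned by the sorting gate from which each nanobody was recovered. The gates were low and high (top ~1%), set on anti-HA fluorescence for expression and streptavidin fluorescence for reagent binding. Before sorting, galactose-induced (36–48 hours) yeast display cells were stained for 1 hour at 4 °C with 10% biotinylated, detergent-solubilized Sf9 membrane reagent.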

Sequence	polyreactivity (PSR sort gate)
QVQIVESGGGLVQAGGSLRLSCAASGSIFFYYSMGWYRQAPGKERELVAAISVGGSTYYADSVKGRFTISRDNAKNTVYLQMNSLKPEDTAVYSFNAVPAKGYVTVVRYYYWGQGTQVTVSS	low polyreactivity
QVQIVESGGGLVQAGGSLRLSCAASGSIFGVNAMGWYRQAPGKERELVASITGGDSTNYADSVKGRFTISRDNAKNTVYLQMNSLKPEDTAVYYCAKDHYYRYEEGDYWGQGTQVTVSS	low polyreactivity
QVQIVESGGGLVQAGGSLRLSCAASGSIFITYAMGWYRPAPGKERELVAAIRDSGDRTYYADSVKGRFTISRDNAKNTVYLQMNSLKPEDTAVYYCNARWQEPLKYDYWGQGTQVTVSS	low polyreactivity
QVQIVESGGGLVQAGGSLRLSCAASGSIFKYYAMGSYRQAPVKERELVAAISSGGSTKYADSVKARFTISRDNEKNTVYLHMTRLIPEDTAVYYCAARDPSRHARRAYDYWGQGTQVTVSS	low polyreactivity
QVQIVESGGGLVQAGGSLRLSCAASGSIFRYYAMAWYRQETGKERELVARISSGVSTNYADSVKGRFTISRDNAKNSVYLQMNSLKPEDTAVYYCNARTGWTGRGRYSLRYDYWGQGTQVTVSS	high polyreactivity
QVQIVESGGGLVQAGGSLRLSCAASGSIFSRYAMGWYRQAPGKERELVAAISGRGGGTYYADSVKGRFTISRDNAKNTVYLQMNSLKPEDTAVYYCAAQLGRPAYSRVSWRAYYYWGQGTQVTVSS	low polyreactivity
QVQIVESGGGLVQAGGSLRLSCAASGSIFSVYAMGWYRQAPGKERELVAAIRYGDTSTYYADSVKGRFTISRDNAKNTVYFQMNSLKPEDTAVYYCAADLYAYEREYWGQGTQVTVSS	low polyreactivity
QVQIVESGGGLVQAGGSLRLSCAASGSIFYRYAMGWYRQAPGKEREFVAAIDYSGSITRYADSVKGRFTISRDNAKNTVYLQMNSLKPEDTAVYYCAARSYAKDWGGYNYWGQGTQVTVSS	high polyreactivity
QVQIVESGGGLVQAGGSLRLSCAASGSILYEYAMGWYRQAPGKERELVAAISSGDSTNYADSVKGRFTISRDNAKNTVYLQMNSLNPEDTAVYDCNRDFPRERFTYKFDYWGQGTQVTVSS	low polyreactivity
QVQIVESGGGLVQAGGSLRLSCAASGSTFTRYTMGWYRQAPGKERELVAAISGRGGSTYYADSVKGRFTISRDNAKNTVYLQMNSLKPEDTAVYYCNKVYWRRGSLEYWGQGTQVTVSS	high polyreactivity
QVQIVESGGGLVQAGGSLRLSCAASGSTSWSNAMGWYRQAPRKERELVAAITTGASTYYADSVKGRFTISRDNSKNTVYLQMNSLKLEDTAVYYCAADPWVLWSYYYWGQGTQVTVSS	low polyreactivity
QVQIVESGGGLVQAGGSLRLSCAASGSTYDTYAMVWYRQAPGKERELVAGITRRGGRTYYADSVKGRFTISRDNAKNTVYLQMISLKPEDTAVYYCAARTYGYYLYDYWGQGSQVTVSS	high polyreactivity
QVQIVESGGGLVQAGGSLRLSCAASGTFSFYAMGWYRQAPGKERELVATIRSGGRTYYADSVKGRFTISRDNAKNTVYLQMNSLKPEDTAVYYCAKTGFLGLRQYGYWGQGTQVTVSS	high polyreactivity
QVQIVESGGGLVQAGGSLRLSCAASGTFTYYAMGWYRQAPGKERELVAAITWRGGNTYYADSVKGRFTISRDNAKNTVYLQKNSLKPEDTEVYYCAASLWPDYEYDYWGQGTQVTVSS	low polyreactivity
QVQIVESGGGLVQAGGSLRLSCAASGTTFDKYAMGWYRQAPGKERELVAAITTNGGNTYADSVKGRFTISRDNAKNTVYLQMNSLKPEDTAVYYCAADGPGGKGLYYYWGQGTQVTVSS	high polyreactivity
QVQIVESGGGLVQAGGSLRLSCAASRIIFSTYAMGWYRQAPGKEREFVAAITSTGSTNYADSVKGRFTISRDNEKNTVYLQMNSLKPEDTAVYYCAARYAGPSPTDTGHDYWGQGTQVTVSS	low polyreactivity

Sequence	polyreactivity (PSR sort gate)
QVQIVESGGGLVQAGGSLRLSCADSGFISSHYAMGWYRQAPGKERELVAAISTNGGSTYYADSVKGRFTISRDNAKNTVYLQMNSLKPEDTSVYYCAAEFAVSFYWSWLGQDYNYWGQGTQVTVSS	high polyreactivity
QVQIVESGGGLVQAGGSLRLSCAPSGSTFWLYAMGWYRHAPGKERELVASISSRGGSTYYADSVTGRFTISRDNAKNTVYLQMNSLKPEDTAVYYCAAKDIRYDDEYWGQGTQVTVSS	low polyreactivity
QVQIVESGGGLVQAGGSLRLSCASSGRIFNTNAMGWYRQAPGKERELVAGITDSGDSTYYADSVKGRFTISRDNAKNTVYLQMNSLKPQDSAVYFCATDPASPYIYYYWGQGTQVTVSS	low polyreactivity
QVQIVESGGGLVQAGGSLRLSCASYGFTFWGYTMGWYRQAPGKERELVAAITSNGSTYYADSVKGRFTISRDNAQNTVYLQMNSLKPEDTAVYYCAATRGSSEYFYWGQGSQVTVSS	low polyreactivity
QVQIVESGGGLVQAGGSLRLSFAASGRTFGVYAMGWYRQAPGKERELVAAISATGGSTYYADSVKGRFTISRDNSKNTVYLQMNSLKPEDTAVYYCARGGTTLYWGLGTQVTVSS	high polyreactivity
QVQIVESGGGLVQAGGSLRLSGAASGRTFRPYTMGWYRPAPGKERELVARITSGGSTNYADSVKWRFTISRDNAKITVYLQMNSLKPEDTAVYYCNKPGYRLRLDDDYWGQGTQVTVSS	low polyreactivity
QVQIVESGGGLVQAGGSLRLSSAASGNIFVYYAMGGYRQAPGKERELVAALTSDVSTYYADSVKGRFTISRDNAKNTVYLQMNSLKPEDTAVYYCNKVTPGRYYYSVTTGDYWGQGTKVTVSS	low polyreactivity
QVQIVESGGGLVQAGGSLRLSSPASGRTLPSYAMGWYRQAPGKERELVAAITRSGGRTYYADSVKGRFTISRDNAKYTVYLQMNSLKPEDTAVYDCAARQDDYGKIYYYWGQGSQVTVSS	high polyreactivity
QVQIVESGGGLVQAGGSLRLTCAASGFTFYKKAMGWYIQAPGKERELVAAITSSGGSTYYADSVKGRFTISRDNAKNTVYLQMNSLKPEDTAVYYCAAYPQAYIADYDYWGQGTQVTVSS	low polyreactivity
QVQIVESGGGLVQAGGSLRLTCAASGSIFDVYTMGWYRQAPGKERELVAAISYSGGRTNYADSVKGRFTISRDNAKNTVYLQIYSLKPEDTAVYYCATTDGRTAWGVKDYYAKYNYWGQGTQVTVSS	low polyreactivity
QVQIVESGGGLVQAGGTLRLSCAASGFIFSSYGMGWYRKAPGKERELVADISGGGSTNYADSVKGRFTISRDNAKNSVYLQMNSLKPEETAVYYCNAQLIRSAAYDYWGQGTQVSVSS	low polyreactivity
QVQIVESGGGLVQAGRSLRLSCAASGSTFGSYAMGWYRQAPGKDRELVAAISASGGSTYYADSVKGRFTISRDNAKHTVYLQMNSLKPEDTAVYYCATVYYSARYTYWGQGTQVTVSS	high polyreactivity
QVQIVESGGGLVQAGVSLRLSCAASGLTIGVYAMGWYRQAPGKERELVAAISWSGGTTYYADSVKGRFTISRDNAKINFYLQMNSLKPEDTAVYYCAADYYTDVDYWGQGNQVTVSS	low polyreactivity
QVQIVESGGGLVQARGSIRFRCAASGRIIGTNTMGWYRQAPGKERELVAAITWSGGSTYYADSVKGRFTISRDKEKTTVYLQMYSLKPEDTAVYYCNVESEYAYHWPVDYWGQGTQVSVSS	low polyreactivity
QVQIVESGGGLVQAVGSLRLSCAASGFTFTYNAMGWYRQAPGKERELVAAISSGGRTYYADSVKGRFTISRDNAKNTVYLQMNSLKPEDTAVYYCNADPDQYTLRSITNDEDYWGQGTQVTVSS	low polyreactivity
QVQIVESGGGLVQPGGSLRLSCAASGRIFGRNAMGWYRQAPGKEWELVAAITTSASRTYYADSVKGRFTISRDNAKNTVYLQMNSLKPEDTAVYYCAARPSWYWYKGDYWGQGTQVTVSS	high polyreactivity
